Test results reported in the nanobody polyreactivity screen of Harvey et al. (2022).

Experiment: yeast display, Sf9 membrane polyspecificity reagent, FACS + sequencing; frameworks hold sequencing errors
How it was run: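 Galactose-induced (36–48 hours) yeast carrying a synthetic nanobody display library were exposed to 10% biotinylated, detergent-solubilized Sf9 membrane reagent at 4 °C for 1 hour. FACS followed streptavidin microbead enrichment, using low and high (top ~1%) gates for expression (anti-HA) and reagent binding (streptavidin). Colony PCR, MiSeq 2 × 250 sequencing and CDR-length filtering followed. Labels for polyreactivity reflect the gate of origin.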

Sequence	polyreactivity (PSR sort gate)
QVQLVESGGGLVQAGGSLSLNCAASGFTFLQYPMGWYRQAPGKERELVATISSGGSTYYADSVKGRFTISPDNAKNTVYLQMNSLKPEDTAVYYCADTGYSSCTYYTHEYWGQGTQVTVSS	low polyreactivity
QVQLVESGGGLVQAGGSLSLRCADSGRTLWAYAMGGYREAAGNDRELVAAISASGGSTYYADSVKGRFTISRDIAKNTVYLQMNSLKPADTAVYYCRLVSKGRLYDYCGQGTQVTVSS	high polyreactivity
QVQLVESGGGLVQAGGSLSLSCAASGFIFRGYAMGWNRQAPGKEREFVAAISRRGGSTYYADSVKGRFTISRDNAKNTVYLQMNSLKPEDTAVYYCAARYSPVWHKYYYWGQGTEVTVSS	high polyreactivity
QVQLVESGGGLVQAGGSLSLSCAASGFTFGSNDMGWYRQAPGKERELVAAIDGSGDTYYADSVKGRFTISRDNAKNTVYLQMNSLKPEDTAVYYCARDDNPIYSGVTYDYWGQGTQVTVSS	low polyreactivity
QVQLVESGGGLVQAGGSLSLSCAASGFTFGTYTMGWYRQAPRKEREFVAAISFSGTTTYYADSVKGRFTISRDNAKNTVYLQMNSLKPEDTAVYYCATRSPRKGVKGHFRYYYWGQGTQVTVSS	high polyreactivity
QVQLVESGGGLVQAGGSLSLSCAASGFTFYGNAIGGNRQAPGKERELVASISTYYADSVKGRFTISRDNAKNTVYLQMNSLKPEDTAVYYCAATHYDRTYYVIYDYWGQGTQVTVSS	low polyreactivity
QVQLVESGGGLVQAGGSLSLSCAASGFTFYYYAMGWYRQAPGKERELVAAISTRDGNTYYADSVKGRFTISRDNAKNTVYLQMNSLKPEDTAVYYCAADYFRYYPYDYWGQGTQVTVSS	low polyreactivity
QVQLVESGGGLVQAGGSLSLSCAASGFTVYGYAMGWYRQAPGKERELVAAISRRSSSTYYADSVKGRFTISRDNAKNTVYLQMNSLKPEDTAVYYCNTVFQRTGYAAGVDYWGQGTQVTVSS	high polyreactivity
QVQLVESGGGLVQAGGSLSLSCAASGGTFLSNAMGWYRQAPGKERELVASISWGGGSTTYADSVKGRFTISRDNAKNTVYLQMNSLKPEDTAVYYCNALDGPGYYVDYDYWGQGTQVTVSS	low polyreactivity
QVQLVESGGGLVQAGGSLSLSCAASGITFNIYVMGWYRQAPGKERELVAAITDSGGTTYYADSVKGRFTISRDNAKNTVYLQMNSLKPEDTAVYYCAAEPFYSWWWWGDYWGQGTQVTVSS	high polyreactivity
QVQLVESGGGLVQAGGSLSLSCAASGITFVWYALGWYRQAPGTERELVAAISRGGSTYYADSVKGRFTISRDNAKNTVYLQMNSLKPEDTAVYYCNAESAARSTVQQARGYYWGQGTQVTVSS	high polyreactivity
QVQLVESGGGLVQAGGSLSLSCAASGLNFVKNTMGWYRQAPGKETELVAGISQRGGSTYYADSEKGRFTISRDNAKNTVYLQMNSLKPEETAVYYCAAYSRTFEGHRGGYWGQGTQVTVSS	high polyreactivity
QVQLVESGGGLVQAGGSLSLSCAASGRIFDYYAMVWYRQAPGKERDLVAAISTSGGSTYYADSVKGRFTISRDNAKNTVYLQMISLKPVDTAVYYCAKDITVTYPGLDYDYWGQGTQVSVSS	low polyreactivity
QVQLVESGGGLVQAGGSLSLSCAASGRIFGRNAMGWYRQAPGKERELVAAISSSGGTYYADSVKGRFTISRDNAKNTVYLQMISLKPEDTAVYYCNDRVRTQQRWVDYWGQGTQVTVSS	high polyreactivity
QVQLVESGGGLVQAGGSLSLSCAASGRIFGRYAMGWYRQAPGTERVLVAVISSGGSKYYADSVKGRFTISRDNAKNTVYLQMNSLKPEDTAVYYCAAVNRRGYDYWGQGTQVTVSS	low polyreactivity
QVQLVESGGGLVQAGGSLSLSCAASGRIFKSYAMGWYRQAPGKERELVAAIRSGGSTYYADSVKGRFTISRDNAKNTVYFQMNSLKPEDTAVYYCNRVTRTWKVTYHYWGQGTQVTVSS	high polyreactivity
QVQLVESGGGLVQAGGSLSLSCAASGRIFNRNAMGWYRQAPGKEREFVAAISYSSGSTYYADSVKGRFTISRDNAKNTVYLQMNSLKPEDTAVYYCAAKVYNSRRNGYFGWTWGGYDYWGQGTQVTVSS	high polyreactivity
QVQLVESGGGLVQAGGSLSLSCAASGRIFQPYAMGWYRQAPGKERELVARITSGGSTYADSVKGRFTISRDNAKNTVYLQMNSLKPEDTAVYYCAVRFPWYYRGYAYDYWGQGTQVTVSS	high polyreactivity
QVQLVESGGGLVQAGGSLSLSCAASGRIFRRYAMGWYRQAPGKERELVAAISRGGSTYYADSVKGRFTISRDNAKNTVYLQMISLKPEDTAVYYCAAYSQSTSFGGYDSWGQGTQVTVSS	high polyreactivity
QVQLVESGGGLVQAGGSLSLSCAASGRIFRVYAMGWYRQAPGKERELVAAISSRGGRTYYADSVKGRFTISRDNAKNTVYLQMNSLKPEDTAVYYCAADGRSSSRATSRYDYWGQGTQVTVSS	high polyreactivity
QVQLVESGGGLVQAGGSLSLSCAASGRIFYGYAMGWYRLAPGKERELVAAIRTSGGSTYYADSVKGRFTISRDNAKNTVYLQMNSLKPEDTAVYYCNAGIVPRNRYYTPYNYWGQGTQVTVSS	low polyreactivity
QVQLVESGGGLVQAGGSLSLSCAASGRIFYVNAMGWYRQAPGKERELVAAISRSGSSTYYADSVKGRFTISRDNAKNTVYLQMNSLKPEDTAVYYCAARYYGRSQHHFDYWGQGTQVTVSS	high polyreactivity

Sequence	polyreactivity (PSR sort gate)
QVQLVESGGGLVQAGGSLSLSCAASGRIIGFNAMGWYRQAPGKERELVASIRTTGGSTRYADSVKGRFTISRDNAKNTVYLQMNSLKPEDTAVYYCAARWGKTLWQYNYWGQGTQVTVSS	high polyreactivity
QVQLVESGGGLVQAGGSLSLSCAASGRILFRYGMGWYRQAPGKERELVARISWSGGNTHYADSVKGRFTISRDNAKNTVYLQMNSLKPEDTAVYYCNAYYTYWYPRYDYWGQGTQVTVSS	low polyreactivity
QVQLVESGGGLVQAGGSLSLSCAASGRMFLRYAMGWYRQAPGKERELVAVITWSGGSTYYADSVKGRFTISRDNAKNTVYLQMNSLKPEDTAVYYCAADWYPTGFYYWGQGTQVTVSS	low polyreactivity
QVQLVESGGGLVQAGGSLSLSCAASGRSFRIYPMGWYRPAPGKERELVATITWRAGSTYYADSVKGRFTISRDNAKNTVYLLMNSLTPEDTAVYYFAAGRQYGGYRYDYWGQGTQVTVSS	high polyreactivity
QVQLVESGGGLVQAGGSLSLSCAASGRTFGYYTMGWYRQAPGKERELVAAINWGGSRTYYADSVKGRFTISRDNAKNTVYLEMNSLKPEDTAVYYCAADVYRQWADDSWGLGTQVTVSS	high polyreactivity
QVQLVESGGGLVQAGGSLSLSCAASGRTFVRYAMGWYRQAPGKERELVAAISRNAGRTYYADSVKGRFTISRDNAKNTVYLQMNSLKPEDTAVYYCAAPGRNLGTGFYYWGQGTQVTVSS	high polyreactivity
QVQLVESGGGLVQAGGSLSLSCAASGRTFYANAMGWNRQAPGKERELVATITRGGSTNYADSVKGRFTISRDNAKNTVYLQMNSLKPEDTAVYYCAARSYTSSHRHYYWGQGTQVTVSS	low polyreactivity
QVQLVESGGGLVQAGGSLSLSCAASGSIFDYNAMGWYRQAPGKEREVVAAIDGGSTYYADSVKGRFTISRDNAKNNVYLQMNSLKPEDTAVDYCAAEGFQADTYYWPMESWGQGTQVTVSS	low polyreactivity
QVQLVESGGGLVQAGGSLSLSCAASGSIFFVNAMGWYRQAPGKERELVAAISRSGGRTYYADSVKGRFTISRDNAKNTVYFQMNSLKPEDTAVYYCAAEYNPGSYFTYDYWGQGTQVTVSS	low polyreactivity
QVQLVESGGGLVQAGGSLSLSCAASGSIFLYNAMGWYRPAPGKERELVAAISKSGGSTYYADSVKGRFTISRDNAKNTVYLQMNSLKPEDTAFYYCAAGYGRRIRYGSEYDYWGQGTQVTVSS	low polyreactivity
QVQLVESGGGLVQAGGSLSLSCAASGSIFWRNAMGWYRPAPGKERELVAAITSGGSTYYADSVKGRFTISRDNAKNTVYLQMNSLKPEDTAVYYCAAGYSYRYDYWGQGTQVTVSS	low polyreactivity
QVQLVESGGGLVQAGGSLSLSCAASGSIFWYYAMGWYRPAPGKERELVATIDVSAGSTYADSVKGRFTIARDNAKNTVYLQMNSLKPEDTAVYDCNADHYPGEVFYVSSTRYEREYWGQGTQVTVSS	low polyreactivity
QVQLVESGGGLVQAGGSLSLSCAASGSISDVYAMGGYRQAPGKERELVAAITSGASTYYADSVKGRFTISRDNAKNTVYLQMNSLKPEDTAVYYCAAGYSDWYYAAYNSWGQGTQVTVST	low polyreactivity
QVQLVESGGGLVQAGGSLSLSCAASGSISDVYPMGGYRQAPRKERELVAAITSGASTYYADSVKGRFTISRDNAKNTVYLQLNSLKTEDTAVYYCAAGYSDWYYADYNSWGQGTQVTVSS	low polyreactivity
QVQLVESGGGLVQAGGSLSLSCAASGSNFVKNAMGWYRPAPGKERELVATISTGGSTYYADSVKGRFTISRDNAKNTVYLQMNSLKPEDTAVYYCATDFYPRFLLRSYRPYYYWGQGTQVTLSS	low polyreactivity
QVQLVESGGGLVQAGGSLSLSCAASGSTFAFYAMGCYRQAPGKERDLVAASTRSAGSTYYADSVKGRFTISRDNATTTVYLPMNSLKREDTAVYYCAKYVSYSRTLYDYWGQGTQVTVSS	low polyreactivity
QVQLVESGGGLVQAGGSLSLSCAASGSTFARYAMGWYRQAPGKERELVAAISITGSTYYADSVKGRFTISRDNAKNTVYLQMKSLKPEDTAVYYCNVKSKYRYGYWGQGTQVTVSS	high polyreactivity
QVQLVESGGGLVQAGGSLSLSCAASGSTFAYYAMGWYREAPGQERELVAGITWTGGSTYYADSVKGRFTISRDNAKNSVYLQMNSLKPEDTAVYYCAADRYFYEGDYWGQVTQVTVSS	low polyreactivity
QVQLVESGGGLVQAGGSLSLSCAASGSTFYSNAMGWYRQAPGKERELVAAISIGGSTYYADSVKGRFTISRDNAKNTVYLQMNSLKPEDTAVYYCAVDYRHSSSWNAGRWEMYYWGQGTQVTVSS	low polyreactivity
QVQLVESGGGLVQAGGSLSLSCAASGYIFGPYDMGWYRQAPGKERELVAVIDWSGGSTYYADSVKGRFTISRDNAKNTFYLQMNSLKPEDTAVYYCAADISWGVSQFDYWGQGTQVTVSS	low polyreactivity
QVQLVESGGGLVQAGGSLSLSCAASGYTFSYYAMGWYRQAPGKERELVARITYSGGSTYYADSVKGRFTISRDNAKNTGYLQIKSLKPEDTAVYYCAARLRYPYWYYYWGQGTQVTVSS	high polyreactivity
